Results: patent US5480970A, “Metal chelators” (Resolution Pharmaceuticals, priority 1993, dated 1996)
Side-chain parts run from the residue outwards. [ ]: non-standard residue; d: D form. The star is where a group is joined. Picolinoyl = O=C(c1ccccn1)*; Nle = CCCC[C@H](N)C(=O)O; Chel = not defined here; Acm = CC(=O)NC*; For = O=C*

Assays:
[1] = test system: neutrophil receptors; experiment: Neutrophil binding assay, competition with tritiated fMLP; settings: competition with 15 nM tritiated fMLP, 10^6 rat neutrophils, 1 hour room temperature
Procedure: Rat peripheral neutrophils were prepared for binding assay as follows: blood was obtained by cardiac puncture and anticoagulated with acid- citrate dextrose (ACD) (10%). Red blood cells were removed by sedimentation on hydroxyethyl cellulose (1.1%) for 30 min at room temperature and leukocyte-rich supernatant layered onto 65% percol. […] The remaining neutrophils were resuspended in Hanks Buffered Salt Solution (HBSS) to the desired concentration. Final neutrophil preparation consisted of cells pooled from up to 10 animals, >90% neutrophils and >95% viable by Trypan Blue exclusion.
Binding affinity of the test peptides was assessed by competing off a constant concentration of tritiated fMLP of known affinity for neutrophil receptors. 10^6 neutrophils were added to polypropylene plates containing 15 nM tritiated fMLP and varying concentrations of unlabelled test peptides in a final volume of 150 μL HBSS. […] Filters were then placed in 6 ml scintillation vials, 5 ml of scintillation fluid added (Ecolume) and vials counted using a liquid scintillation counter. […] Specific binding was the total binding less non-specific binding which was the amount of residual radioactivity bound in the presence of 10 μM unlabelled fMLP.

[2] = test system: inflamed muscle (left leg), E. coli; experiment: In vivo uptake of Tc-99m chelates in inflamed vs non-inflamed muscle; design: species or system male Wistar rats; settings: Inflam agent E. coli; for Inflam muscle / Uninfl muscle: time (min): RP-063 30, RP-056 45, IgG 120, others not given; for Infl:Uninfl: ratio inflamed to uninflamed muscle, time (min): RP-063 30, RP-056 45, IgG 120
Procedure: (§1) Rat inflammation studies were performed as follows. 2 male Wistar rats (Charles River, 150-200 g) were injected intramuscularly with zymosan, a yeast cell wall preparation (5 mg) or virulent E. coli (ATCC 25922, 0.1 ml of 0.5×10^9 organisms/ml) suspension into their left hindlegs 24 hours before imaging. Focal inflammation in the leg was visually detectable after 1 day. 1 mg (ca. 0.7 μMol) of the chelator was dissolved in 50 μL of dimethylsulfoxide and added to an ethanol-water mixture (1:1, 200 μL). An aliquot of Tc-99m tartarate (ca. 400 MBq) was added and transchelation allowed to proceed for 20 min. at 100° C. The Tc-99m chelate was purified by elution through a Sep Pak cartridge. The purified tracer solution was further diluted with saline to prepare an injectable (200 μL) containing about 100 μCi (3.7 MBq) of activity.
(§2) The rats were anaesthetized with somnitol (40 to 50 mg/kg), and the Tc-99m chelate solution (200 μL) was injected intravenously via the tail vein. Serial whole-body scintigrams were acquired for the first 5 minutes. Subsequently, further images were obtained at 30, 60, and 120 minutes. The rats were then killed with anaesthesia and samples of organs, urine, blood, inflamed muscle (left leg) and non-inflamed muscle (right leg) were weighted and counted in either a well-type gamma counter or in a gamma dose calibrator. The dose calculations were made based on assumption that the rat weighed 200 g and that the blood volume constituted 8% of body weight. Results are averages for two rats and are corrected for the residual dose in the tail.

[3] = In vivo biodistribution of Tc-99m chelates in rat inflammation studies; design: species or system male Wistar rats; settings: for In vivo Distribution blood: Tc-99m chelate i.v. tail vein, average of two rats, time (min): RP-022 90, RP-043 88, RP-050 109, RP-063 30, RP-065 30, IgG 120, RP-049 not given; for In vivo Distribution GI tract / In vivo Distribution liver / In vivo Distribution kidney / In vivo Distribution urine: Tc-99m chelate i.v.; for In vivo Distribution GI tract / In vivo Distribution liver: time (min): RP-022 90, RP-043 88, RP-050 109, RP-063 30; for In vivo Distribution kidney: time (min): RP-022 90, RP-043 88, RP-050 109, RP-063 30, RP-049 not given; for In vivo Distribution urine: time (min): RP-022 90, RP-043 88, RP-050 109, RP-063 30, RP-065 30
Procedure: as §1, §2

Substance	binding affinity for neutrophil receptors [1]	Inflam muscle [2]	Uninfl muscle [2]	Infl:Uninfl [2]	In vivo Distribution blood [3]	In vivo Distribution GI tract [3]	In vivo Distribution liver [3]	In vivo Distribution kidney [3]	In vivo Distribution urine [3]
(Pic-Gly-Cys(Acm)-Gly)-ε-NH-Lys(-Asp-Gly-OH)-Lys-Tyr-Nleu-Phe-Leu- Nleu-for (For-[Nle]LF[Nle]YKK([Gly-Cys(Acm)-Gly-Picolinoyl])DG-OH) [RP-056, ID No. 13]	greater binding affinity for neutrophil receptors than native fMLP	0.143 % per gm	0.041 % per gm	3.52	–	–	–	–	–
(Pic-Gly-Cys(Acm)-Gly)-εNH-Lys(-Gly-OH)-Tyr-Nleu-Phe-Leu-Nleu-for (For-[Nle]LF[Nle]YK([Gly-Cys(Acm)-Gly-Picolinoyl])G-OH) [RP-050, ID NO: 12]	greater binding affinity for neutrophil receptors than native fMLP	–	–	3.17	3.436 % per organ	25.777 % per organ	20.866 % per organ	11.470 % per organ	14.050 % per organ
(Pic-Gly-Cys-Gly)-εNH-Lys(-Gly-OH)-Tyr-Nleu-Phe-Leu-Nleu-for (For-[Nle]LF[Nle]YK([Gly-Cys-Gly-Picolinoyl])G-OH; SMILES CCCC[C@H](NC=O)C(=O)N[C@@H](CC(C)C)C(=O)N[C@@H](Cc1ccccc1)C(=O)N[C@@H](CCCC)C(=O)N[C@@H](Cc1ccc(O)cc1)C(=O)N[C@@H](CCCCNC(=O)CNC(=O)[C@H](CS)NC(=O)CNC(=O)c1ccccn1)C(=O)NCC(=O)O) [RP-022, ID NO: 11]	–	–	–	–	3.036 % per organ	41.285 % per organ	35.26 % per organ	18.82 % per organ	8.400 % per organ
(Pic-Ser-Cys(Acm)-Gly)-Lys-Pro-Pro-Arg-OH (Picolinoyl-SC(Acm)GKPPR-OH; SMILES CC(=O)NCSC[C@H](NC(=O)[C@H](CO)NC(=O)c1ccccn1)C(=O)NCC(=O)N[C@@H](CCCCN)C(=O)N1CCC[C@H]1C(=O)N1CCC[C@H]1C(=O)N[C@@H](CCCNC(=N)N)C(=O)O) [RP-065, ID NO: 10]	–	0.125 % per gm	0.059 % per gm	2.1	3.520 % per organ	–	–	–	53.000 % per organ
(Pic-Ser-Cys(Acm)-Gly)-Thr-Lys-Pro-Pro-Arg-OH (Picolinoyl-SC(Acm)GTKPPR-OH; SMILES CC(=O)NCSC[C@H](NC(=O)[C@H](CO)NC(=O)c1ccccn1)C(=O)NCC(=O)N[C@H](C(=O)N[C@@H](CCCCN)C(=O)N1CCC[C@H]1C(=O)N1CCC[C@H]1C(=O)N[C@@H](CCCNC(=N)N)C(=O)O)[C@@H](C)O) [RP-063, ID NO: 9]	–	0.180 % per gm	0.050 % per gm	3.62	6.370 % per organ	5.080 % per organ	3.050 % per organ	4.170 % per organ	44.710 % per organ
Chel-Gly-Cys(Acm)-Gly-OH (reading uncertain; also: printed as Chel-Gly-Cys(Acm)-Gly-OH) [RP-043, ID NO: 6]	–	–	–	–	1.016 % per organ	52.619 % per organ	0.953 % per organ	4.359 % per organ	33.950 % per organ
Pic-Gly-Cys(Acm)-Gly-OH (Picolinoyl-Gly-Cys(Acm)-Gly-OH; SMILES CC(=O)NCSC[C@H](NC(=O)CNC(=O)c1ccccn1)C(=O)NCC(=O)O) [RP-049, ID NO: 8]	–	0.077 % per gm	0.019 % per gm	4.24	0.187 % per organ	–	–	21.700 % per organ	–
